Measurements: publication PMC4022648
Values joined by “and” are separate entries in the source; they are usually repeats but may differ in a detail not shown here. Equal entries are not always repeated.

Columns and labels:
[1] = target: naïve Hsp60 (human Hsp60 with its mitochondrial import signal) (human) (UniProt P10809); assay: SAXS; 20 °C, Guinier analysis; naïve Hsp60 at 23.8 µM
[2] = target: naïve Hsp60 (human Hsp60 with its mitochondrial import signal) (human) (UniProt P10809); assay: SAXS; 20 °C, Guinier analysis; naïve Hsp60 at 79.5 µM, GroEL at 52.5 µM
[3] = target: naïve Hsp60 (human Hsp60 with its mitochondrial import signal) (human) (UniProt P10809); assay: SEC; HPLC size exclusion, Shodex 806 and 804 in series, 24 °C, 20 mM Tris-HCl pH 8 + 10% glycerol; naïve Hsp60 at 0.8-16.0 µM, compared with GroEL at 7.0 µM and BSA
[4] = target: naïve Hsp60 (human Hsp60 with its mitochondrial import signal) (human) (UniProt P10809); assay: static light scattering; Rayleigh ratio at 90° divided by concentration; naïve Hsp60 at 1.6-47.6 µM; compared with ideal lines for tetradecamer (882 kDa) and heptamer (441 kDa)
[5] = target: naïve Hsp60 (human Hsp60 with its mitochondrial import signal) (human) (UniProt P10809); assay: native gel or EMSA; Blue native PAGE, 4-16% Bis-Tris gels, sample buffer with 1% digitonin and 0.5% DDM, pH 7.2, Coomassie G-250; naïve Hsp60 at 1.9-20.7 µM, GroEL at 1.0-18.9 µM

- stoichiometry N [1]: 7 and 14
- stoichiometry N [2]: 14
- stoichiometry N [3]: 7 and 14
- stoichiometry N [4]: 7 and 14
- stoichiometry N [5]: 7 and 14
Substance: naïve Hsp60 (human Hsp60 with its mitochondrial import signal) (from UniProt P10809 27-573) (natural protein)
